Tests used:
mouse model of AD = test: APP transgenic mouse model of AD; assay type: in vivo, mice
Procedure: Experiments were performed to evaluate whether TTP-4000 could affect amyloid formation and cognitive dysfunction in a mouse model of AD. The experiments utilized transgenic mice expressing the human Swedish mutant amyloid precursor protein (APP) under the control of the PDGF-B chain promoter. Over time, these mice generate high levels of the RAGE ligand, amyloid beta (Aβ).
The APP mice (male) used in this experiment were designed by microinjection of the human APP gene (with the Swedish and London mutations) into mouse eggs under the control of the platelet-derived growth factor B (PDGF-B) chain gene promoter. The mice were generated on a C57BL/6 background and were developed by Molecular Therapeutics Inc. Animals were fed ad libitum and maintained by brother sister mating. The mice generated from this construct develop amyloid deposits starting at 6 months of age. Animals were aged for 6 months and then maintained for 90 days and sacrificed for amyloid quantification.
APP transgenic mice were administered vehicle or TTP4000 every other day [qod (i.p.)] for 90 days starting at 6 months of age. At the end of the experiment, animals were sacrificed and examined for Aβ plaque burden in the brain (i.e., plaque number). A 6-month control APP group was used to determine the baseline of amyloid deposits. In addition, at the end of the study, the animals were subjected to behavioral (Morris water maze) analysis. The investigators were blinded to the study compounds. Samples were given to the mice at 0.25 ml/mouse/every other day.
For histological examination, the animals were anesthetized with an intraperitoneal injection (IP) of sodium pentobarbital (50 mg/kg). The animals were transcardially perfused with 4° C., phosphate-buffered saline (PBS) followed by 4% paraformaldehyde. The brains were removed and placed in 4% paraformaldehyde over night. The brains were processed to paraffin and embedded. Ten serial 30-μm thick sections through the brain were obtained. Sections were subjected to primary antibody overnight at 4° C. (Aβ peptide antibody) in order to detect the amyloid deposits in the brain of the transgenic animals (Guo et al., J. Neurosci., 22:5900-5909 (2002)). Sections were washed in Tris-buffered saline (TBS) and secondary antibody was added and incubated for 1 hour at room temperature. After washing, the sections were incubated as instructed in the Vector ABC Elite kit (Vector Laboratories) and stained with […] (DAB). The reactions were stopped in water and cover-slipped after treatment with xylene. The amyloid area in each section was determined with a computer-assisted image analysis system, consisting of a Power Macintosh computer equipped with a Quick Capture frame grabber card, Hitachi CCD camera mounted on an Olympus microscope and camera stand. NIH Image Analysis Software, v. 1.55 was used. The images were captured and the total area of amyloid was determined over the ten sections. A single operator blinded to treatment status performed all measurements. Summing the amyloid volumes of the sections and dividing by the total number of sections was done to calculate the amyloid volume.
For quantitative analysis, an enzyme-linked immunosorbent assay (ELISA) was used to measure the levels of human total Aβ, Aβtotal and Aβ1-42 in the brains of APP transgenic mice (Biosource International, Camarillo, Calif.). Aβtotal and Aβ1-42 were extracted from mouse brains by guanidine hydrochloride and quantified as described by the manufacturer. […]

[1] = test system: HMGB1-induced TNF-α production in THP-1 cells; test: HMGB1-induced TNF-α production in THP-1 cells; assay type: cell-based; set-up: dose or concentration left out as unconfirmed; details: 24 hours
Procedure: (§1) HMGB1 has been reported to be a ligand for RAGE and the Toll-Like Receptors 2 and 4 (Park et al., J Biol Chem., 2004; 279(9):7370-7). All three of these receptors (RAGE, Toll-like receptor 2, and Toll-like receptor 4) are expressed on THP-1 cells (Parker, et al., J Immunol., 2004,172(8):4977-86.).
In this experiment, THP-1 cells were stimulated to produce TNF-α by HMGB1 ([…]) in the presence or absence of either TTP4000 or anti-RAGE antibodies. Under the conditions used in the assay, HMGB1 should be the only inducer of TNF-α.
as §1, with “HMGB 1” for “HMGB1”, “J.” for “J”
In this experiment, THP-1 cells were stimulated to produce TNF-α by HMGB1 ([…]) in the presence or absence of either TTP4000 or anti-RAGE antibodies. Under the conditions used in the assay, HMGB1 should be the only inducer of TNF-α. The amount of TNF-αsecreted by the THP-1 cells was measured 24 hours after the addition of the proteins to the cell culture using a commercially available ELISA kit for TNF-α (R&D Systems, Minneapolis, Minn.).

[2] = treated for 3 months, qod i.p., versus vehicle and human IgG1

B1: TTP-4000: four domain RAGE fusion protein: human RAGE N-terminal sequence (to position 251) linked to human IgG Fc (γ1) without hinge; SEQ ID NO: 34/56 (protein)
chain: QNITARIGEPLVLKCKGAPKKPPQRLEWKLNTGRTEAWKVLSPQGGGPWDSVARVLPNGSLFLPAVGIQDEGIFRCQAMNRNGKETKSNYRVRVYQIPGKPEIVDSASELTAGVPNKVGTCVSEGSYPAGTLSWHLDGKPLVPNEKGVSVKEQTRRHPETGLFTLQSELMVTPARGGDPRPTFSCSFSPGLPRHRALRTAPIQPRVWEPVPLEEVQLVVEPEGGAVAPPSVFLFPPKPKDTLMISRTPEVTCVVVDVSHEDPEVKFNWYVDGVEVHNAKTKPREEQYNSTYRVVSVLTVLHQDWLNGKEYKCKVSNKALPAPIEKTISKAKGQPREPQVYTLPPSRDELTKNQVSLTCLVKGFYPSDIAVEWESNGQPENNYKTTPPVLDSDGSFFLYSKLTVDKSRWQQGNVFSCSVMHEALHNHYTQKSLSLSPGK
inflammatory cytokines IL-1 and TNF-α (mouse model of AD; data not shown): can reduce the inflammatory cytokines IL-1 and TNF-α | Aβ plaques in the brain (mouse model of AD; [2]): fewer Aβ plaques | cognitive dysfunction (Morris water maze) (mouse model of AD; [2]): less cognitive dysfunction | inhibition of HMGB1-induced TNF-α production [1]: to a greater extent than does the anti-RAGE antibody
